Substrate: OC[C@H]1OC(O)[C@H](O)[C@@H](O)[C@@H]1O
Experiment: purified protein
Format: biochemical, Aspergillus niger
Settings: apparent Km of the whole free GOx/HRP cascade, not of isolated GOx, authors call the kinetics governed by HRP, glucose 50-150 µM, dissolved O2, constant TMB, 0.1 M acetate pH 4.5, room temperature

B1: glucose oxidase (GOx) (Aspergillus niger) (protein)
chain: LPHYIRSNGIEASLLTDPKDVSGRTVDYIIAGGGLTGLTTAARLTENPNISVLVIESGSYESDRGPIIEDLNAYGDIFGSSVDHAYETVELATNNQTALIRSGNGLGGSTLVNGGTWTRPHKAQVDSWETVFGNEGWNWDNVAAYSLQAERARAPNAKQIAAGHYFNASCHGVNGTVHAGPRDTGDDYSPIVKALMSAVEDRGVPTKKDFGCGDPHGVSMFPNTLHEDQVRSDAAREWLLPNYQRPNLQVLTGQYVGKVLLSQNGTTPRAVGVEFGTHKGNTHNVYAKHEVLLAAGSAVSPTILEYSGIGMKSILEPLGIDTVVDLPVGLNLQDQTTATVRSRITSAGAGQGQAAWFATFNETFGDYSEKAHELLNTKLEQWAEEAVARGGFHNTTALLIQYENYRDWIVNHNVAYSELFLDTAGVASFDVWDLLPFTRGYVHILDKDPYLHHFAYDPQYFLNELDLLGQAAATQLARNISNSGAMQTYFAGETIPGDNLAYDADLSAWTEYIPYHFRPNYHGVGTCSMMPKEMGGVVDNAARVYGVQGLRVIDGSIPPTQMSSHVMTVFYAMALKISDAILEDYASMQ
notes: commercial native enzyme, type VIII (Merck/Sigma Aldrich), free in solution, ~160 kDa, FAD-containing
Question: With B1 as the protein, how does the Km read?
Answer: 275 µM

Question: And the Vmax?
Answer: 696 µM/min/mg
